Measurements: patent publication US20160083473A1 (NUMAB THERAPEUTICS, published 2016)
One block for each binder: values may come before it.

Tests used:
[1] = target: T1, human heterodimeric single-chain CD3γδ extracellular domain (produced in-house) (human); experiment: SPR, human single-chain CD3 ECD immobilised by amine coupling, scDb injected
T1 chain 1: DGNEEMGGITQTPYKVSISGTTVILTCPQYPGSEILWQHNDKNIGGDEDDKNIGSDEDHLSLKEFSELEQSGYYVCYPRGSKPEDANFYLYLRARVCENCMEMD
T1 chain 2: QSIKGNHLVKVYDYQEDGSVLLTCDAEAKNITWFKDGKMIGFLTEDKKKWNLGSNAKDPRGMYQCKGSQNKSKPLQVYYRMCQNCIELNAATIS

[2] = target: T2, recombinant human IL23R Fc chimera (R&D Systems, Cat. No. 1400-IR-050) (human, UniProt Q5VWK5 24-353); experiment: SPR, IL23R Fc chimera captured by anti-human IgG Fc, scFv injected
T2 construct: bought
Experimental: (§1) Binding affinities of anti-IL23R scFvs were measured by surface plasmon resonance (SPR) using a MASS-1 SPR instrument (Sierra Sensors). […] After immobilization, 1 ug/ml recombinant human IL23R Fc chimera (R&D Systems, Cat. No. 1400-IR-050) was captured by the anti-human IgG antibody while a second immobilized channel served as a control where the capture was replaced by buffer. Two-fold serial dilutions of human scFvs ranging from 180 to 2.81 nM were injected into both flow cells for 3 min and dissociation of the scFvs from the chimera on the sensor chip was allowed to proceed for 700 sec. After each injection cycle, surfaces were regenerated with two 1 min injections of 10 mM glycine-HCl pH 1.5. In a similar manner the affinities for cynomolgus and mouse IL23R Fc chimera (R&D Systems, Cat. No. 1686-MR-050) was measured. The apparent dissociation (kd) and association (ka) rate constants and the apparent dissociation equilibrium constant (KD) were calculated with the MASS-1 analysis software (Analyzer, Sierra Sensors) using one-to-one Langmuir binding model.

[3] = target: T3, cynomolgus IL23R Fc chimera (cynomolgus monkey, UniProt G7NWY5 24-353); experiment: as above
T3 construct: source of the cynomolgus chimera is not clearly stated; also called cyno IL23R; not shown: Fc part of the chimera
T3 sequence: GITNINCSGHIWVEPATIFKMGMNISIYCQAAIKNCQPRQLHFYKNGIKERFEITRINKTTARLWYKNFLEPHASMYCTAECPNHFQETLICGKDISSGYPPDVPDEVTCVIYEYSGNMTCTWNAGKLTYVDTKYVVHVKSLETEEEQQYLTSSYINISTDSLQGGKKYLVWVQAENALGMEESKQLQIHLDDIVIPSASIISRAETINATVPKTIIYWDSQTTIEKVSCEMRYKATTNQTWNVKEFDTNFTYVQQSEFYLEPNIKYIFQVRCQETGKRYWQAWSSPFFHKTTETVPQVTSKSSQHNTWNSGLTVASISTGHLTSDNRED
Experimental: as §1

[4] = target: T4, mouse IL23R Fc chimera (R&D Systems, Cat. No. 1686-MR-050) (mouse, UniProt Q8K4B4 24-372); experiment: as above
T4 construct: bought; Fc part of the bought chimera not given
T4 sequence (looked up): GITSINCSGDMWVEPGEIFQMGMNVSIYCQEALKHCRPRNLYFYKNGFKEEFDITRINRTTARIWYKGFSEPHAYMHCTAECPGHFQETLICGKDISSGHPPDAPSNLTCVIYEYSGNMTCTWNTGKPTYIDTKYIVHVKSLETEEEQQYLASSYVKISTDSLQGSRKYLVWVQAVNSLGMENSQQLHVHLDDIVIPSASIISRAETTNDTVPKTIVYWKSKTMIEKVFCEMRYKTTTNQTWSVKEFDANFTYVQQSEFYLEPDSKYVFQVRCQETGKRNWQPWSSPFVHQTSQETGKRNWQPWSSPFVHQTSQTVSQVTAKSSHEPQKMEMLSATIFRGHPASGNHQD
Experimental: as §1

Kd [1]: 11.6 nM | koff [1]: 0.00126 s⁻¹ | kon [1]: 109000 M⁻¹ s⁻¹
B1: PRO165, bispecific anti-IL23R x CD3ε single-chain diabody (bispecific antibody)
chain: DIQMTQSPSSLSASVGDRVTITCQASENIYSFLAWYQQKPGKAPKLLIYSASKLAAGVPSRFSGSGSGTDFTLTISSLQPEDFATYYCQQTNRYSNPDIYNVFGQGTKLTVLGGGGGSEVQLVESGGGLVQPGGSLRLSCAASGFPLSSYAMIWVRQAPGKGLEWIGMILRAGNIYYASWVKGRFTISRDNSKNTVYLQMNSLRAEDTAVYYCARRHYNREGYPIGIGDLWGQGTLVTVSSGGGGSGGGGSGGGGSGGGGSDIQMTQSPSSLSASVGDRVTITCQSSESVYNNKRLSWYQQKPGKAPKLLIYTASSLASGVPSRFSGSGSGTDFTLTISSLQPEDFATYYCQGEFTCSNADCFTFGQGTKLTVLGGGGGSEVQLVESGGGLVQPGGSLRLSCAASGIDFNSNYYMCWVRQAPGKGLEWIGCIYVGSHVNTYYANWAKGRFTISRDNSKNTVYLQMNSLRAEDTAVYYCATSGSSVLYFKFWGQGTLVTVSS
notes: VL(anti-IL23R 14-11-D07-sc01)-G4S-VH(anti-CD3 clone 6)-(G4S)4-VL(anti-CD3 clone 6)-G4S-VH(anti-IL23R 14-11-D07-sc01); also called scDb

Kd [2]: 0.116 nM | koff [2]: 0.000259 s⁻¹ | kon [2]: 2.24e+06 M⁻¹ s⁻¹ | Kd [3]: 0.124 nM | koff [3]: 0.000361 s⁻¹ | kon [3]: 2.92e+06 M⁻¹ s⁻¹ | Kd [4]: 2.21 nM | koff [4]: 0.00418 s⁻¹ | kon [4]: 1.89e+06 M⁻¹ s⁻¹
B2: humanized anti-IL23R scFv 14-11-D07-sc01 (scFv, V domains shown)
VH: EVQLVESGGGLVQPGGSLRLSCAASGIDFNSNYYMCWVRQAPGKGLEWIGCIYVGSHVNTYYANWAKGRFTISRDNSKNTVYLQMNSLRAEDTAVYYCATSGSSVLYFKFWGQGTLVTVSS
VL: DIQMTQSPSSLSASVGDRVTITCQASENIYSFLAWYQQKPGKAPKLLIYSASKLAAGVPSRFSGSGSGTDFTLTISSLQPEDFATYYCQQTNRYSNPDIYNVFGQGTKLTVLG
notes: tested as a single-chain Fv; CDR graft on a Vk1/VH3 human acceptor framework
